According to PMC3839849 (2013):

Molecular target: CaV1.2 IQ domain (Homo sapiens, UniProt Q13936, Ca2+)
Assay: ITC

CaV1.2 IQ domain, sequence (Q13936 1665-1685): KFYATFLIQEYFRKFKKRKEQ

B1: CaBP1 C-lobe (protein)
chain: ADMIGVKELRDAFREFDTNGDGEISTSELREAMRKLLGHQVGHRDIEEIIRDVDLNGDGRVDFEEFVRMMSR
- Kd: 10.5 nM
